Where two headings read alike, the source gives them in different places.
Columns and labels:
[1] = animal model; without adverse effects on body weight and adipose tissue mass; cited from earlier work
[2] = molecular target: T1, rat prolactin receptor (Rattus norvegicus, UniProt P05710); details: cited from earlier work
T1 construct: host or cells: rat hepatocytes
T1 sequence (P05710 20-310 isoform P05710-3 limits assumed): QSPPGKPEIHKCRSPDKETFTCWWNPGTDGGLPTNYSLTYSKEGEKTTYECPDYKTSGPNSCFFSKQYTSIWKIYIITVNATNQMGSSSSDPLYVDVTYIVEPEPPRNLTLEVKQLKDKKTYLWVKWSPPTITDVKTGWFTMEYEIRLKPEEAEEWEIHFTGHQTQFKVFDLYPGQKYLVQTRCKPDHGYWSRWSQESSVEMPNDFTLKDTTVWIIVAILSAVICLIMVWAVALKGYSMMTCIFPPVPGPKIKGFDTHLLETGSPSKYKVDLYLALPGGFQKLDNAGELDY

[3] = molecular target: T2, GH receptors (Rattus norvegicus, UniProt P16310); details: cited from earlier work
T2 construct: host or cells: rat hepatocytes
T2 sequence (P16310 19-638): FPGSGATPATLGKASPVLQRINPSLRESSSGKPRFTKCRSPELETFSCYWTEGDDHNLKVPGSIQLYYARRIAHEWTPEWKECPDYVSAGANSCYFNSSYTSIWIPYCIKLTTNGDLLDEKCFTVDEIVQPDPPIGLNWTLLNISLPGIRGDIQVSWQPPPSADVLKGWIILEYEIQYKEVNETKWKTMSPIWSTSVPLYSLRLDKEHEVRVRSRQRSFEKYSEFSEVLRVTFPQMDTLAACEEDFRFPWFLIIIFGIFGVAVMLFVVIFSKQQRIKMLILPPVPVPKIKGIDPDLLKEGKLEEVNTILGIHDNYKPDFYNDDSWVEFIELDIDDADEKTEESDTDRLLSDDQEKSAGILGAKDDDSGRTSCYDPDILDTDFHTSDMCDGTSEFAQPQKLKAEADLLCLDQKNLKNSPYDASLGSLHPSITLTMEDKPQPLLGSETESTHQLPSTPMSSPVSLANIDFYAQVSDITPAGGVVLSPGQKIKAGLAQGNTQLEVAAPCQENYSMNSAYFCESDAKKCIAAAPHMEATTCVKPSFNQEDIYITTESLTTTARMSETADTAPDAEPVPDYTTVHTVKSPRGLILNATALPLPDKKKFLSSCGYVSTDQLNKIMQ

[4] = overnight administration; lean and obese nondiabetic subjects, impaired glucose tolerance or type 2 diabetes; cited from earlier work
[5] = by inhibition of lipolysis; cited from earlier work
[6] = system: plasma IGF-I; experiment: Plasma IGF-I by RIA; format: in vivo, Wistar rats; details: compared to saline controls; AD and SGA animals; at time of sacrifice
Method: (§1) Blood samples were collected following overnight fast. Samples were collected from the tail vein and at termination following decapitation under halothane anaesthetic. Blood samples were collected into heparinised tubes and centrifuged for harvesting of plasma. Blood samples were then analysed for insulin, glucose, FFAs, leptin, IGF-I, glycerol, triglycerides, cholesterol, corticosterone, markers of hepatic function (ALT, AST, ALP), and for markers of protein synthesis.
(§2) Plasma FFAs, triglycerides and glycerol were measured by diagnostic kit (Boehringer-Mannheim #1383175 and Sigma #337 respectively). Plasma leptin, insulin were measured using commercially available kits (inco, St Charles, Mo., US). Plasma IGF-I was measured by RIA as described previously (Vickers et al., 2000). Plasma glucose concentrations were measured using a colorimetric plate assay. All other plasma analytes (liver enzymes, electrolytes, etc.) were measured by a BM/Hitachi 737 analyser by Agriquality Laboratory Services (Auckland, New Zealand).

[7] = Blood hematocrit (marker of plasma volume / fluid retention); format: in vivo, Wistar rats; details: compared to saline; AD and SGA groups
Excerpt: A well-characterised effect of GH treatment is increased plasma volume (Johannsson et al, 2002). Decrease in blood hematocrit is a reliable marker of increase in plasma volume associated with fluid retentive effects of GH therapy.

[8] = system: plasma leptin; experiment: Plasma leptin; format: in vivo, Wistar rats; details: compared to saline animals and animals that received GH and fibrate
Method: as §1, §2

[9] = system: plasma glucose; experiment: Fasting plasma glucose; format: in vivo, Wistar rats; details: compared to controls
Method: as §1, §2

[10] = Systolic blood pressure by tail cuff plethysmography; format: in vivo, Wistar rats; details: SGA offspring
Method: Systolic and diastolic blood pressure and heart rate were recorded by tail cuff plethysmography according to the manufacturer's instructions (Blood pressure analyser IITC, Life Science, Woodland Hills, Calif., USA). Rats were restrained in a clear plastic tube in a heated room (25-28° C.). After 10-15 minutes acclimatisation the cuff was placed on the tail and inflated to 240 mmHg. Pulses were recorded during deflation at a rate of 3 mmHg/sec and reappearance of a pulse was used to determine systolic blood pressure. A minimum of 3 clear systolic blood pressure recordings were taken per animal. Previous observations indicate that the coefficient of variation for repeated measurements is <5%.

[11] = Tissue studies: organ and fat depot weights at termination; format: in vivo, Wistar rats
Method: At termination animals were sacrificed by decapitation under halothane anaesthesia. Tissues (heart, liver, muscle and adipose (subcutaneous and visceral)) were collected, weighed and snap frozen in liquid nitrogen for subsequent analysis. An aliquot of liver tissue was also frozen at −20° C. for examining the growth hormone receptor using ligand-binding analysis.

[12] = Body lengths (nose-anus) post-mortem and BMI; format: in vivo, Wistar rats
Method: (§3) Body lengths (nose-anus and nose-tail) and bone length (tibial, femoral length) was assessed post-mortem using peripheral quantitative computed tomography (PQCT, Stratec) analysis. Bone density was also assessed via pQCT.
A BMI was calculated using: body weight/nose-anus length (cm)2. […] Due to the lack of lipolysis in the GH and acipimox treated animals compared to GH treated, alterations in BMI probably reflect an enhancement of liner growth above that of GH alone.

[13] = system: plasma triglycerides; experiment: Plasma triglycerides; format: in vivo, Wistar rats; details: compared to saline controls
Method: as §1, §2

[14] = Tibial bone length, area and density by pQCT post-mortem; format: in vivo, Wistar rats; details: for Fisher's PLSD for TRABECULAR, Mean Diff.: effect: treatment, significance level 5%
Method: as §3
Tibias were stored in 10% neutral buffered formalin. Tissue was stripped from the bone and bone length, area and density (cortical and trabecular) was assessed using pQCT (Stratec). […] Tibial length was highly correlated with total body (nose-anus) length (FIG. 5).

CCCCCCCN(CCc1ccc(SC(C)(C)C(=O)O)cc1)C(=O)Nc1ccc(F)cc1F [GW9578]
insulin resistance [1]: reduce insulin resistance

hGH: human growth hormone, lactogenic and somatogenic in the rat
binding to prolactin receptor (lactogenic binding sites) [2]: binding to both prolactin receptors and GH receptors | binding to GH receptors (somatogenic binding sites) [3]: binding to both prolactin receptors and GH receptors

Cc1cnc(C(=O)O)c[n+]1[O-] [acipimox, 5-methylpyrazinecarboxylic acid 4-oxide]
insulin resistance [4]: reduce insulin resistance | plasma FFA levels [4]: lower plasma FFA levels | GH induced insulin resistance [5]: partially prevent

CC(C)(Oc1ccc(C2CC2(Cl)Cl)cc1)C(=O)O (stereo not shown) [ciprofibrate]
insulin resistance [1]: reduce insulin resistance

B1: GH: Recombinant bovine growth hormone, a pure somatogen in the rat, given subcutaneously at 5 mg/kg/day (protein, UniProt P01246 27-217, looked up)
Somatotropin: AFPAMSLSGLFANAVLRAQHLHQLAADTFKEFERTYIPEGQRYSIQNTQVAFCFSETIPAPTGKNEAQQKSDLELLRISLLLIQSWLGPLQFLSRVFTNSLVFGTSDRVYEKLKDLEEGILALMRELEDGTPRAGQILKQTYDKFDTNMRSDDALLKNYGLLSCFRKDLHKTETYLRVMKCRRFGEASCAF
Plasma IGF-I [6]: significantly increased | binding to prolactin receptor (lactogenic binding sites) [2]: not a ligand | blood plasma hematocrit [7]: significantly reduced | plasma leptin [8]: elevated | Fasting plasma glucose [9]: not significantly altered | systolic blood pressure [10]: significantly reduced and normalised | Relative kidney weight ([11]; compared to saline controls): reduced | retroperitoneal fat mass ([11]; compared to saline controls): significantly reduced | Relative liver weight ([11]; relative to body weight, AD and SGA animals): no effect | BMI ([12]; compared to saline): not significantly different | Nose anus lengths ([12]; post-mortem, effect of treatment): significantly increased | Plasma triglycerides [13]: no significant effect | Total bone density ([14]; pQCT): trend (p=0.056) towards to drop | trabecular bone mass ([14]; pQCT, AD and SGA animals): significantly reduced | Tibial length ([14]; pQCT, effect of treatment, AD and SGA): significantly increased | Fisher's PLSD for TRABECULAR, Mean Diff. ([14]; versus GH/ACIP): −4.381 | Fisher's PLSD for TRABECULAR, Mean Diff. ([14]; versus GH/FIB): −10.613 | Fisher's PLSD for TRABECULAR, Mean Diff. ([14]; versus SALINE): −14.137
